The target in series [1] is T1, Msl5-(KH-QUA2) (Saccharomyces cerevisiae, UniProt Q12186 144-271).
T1 sequence: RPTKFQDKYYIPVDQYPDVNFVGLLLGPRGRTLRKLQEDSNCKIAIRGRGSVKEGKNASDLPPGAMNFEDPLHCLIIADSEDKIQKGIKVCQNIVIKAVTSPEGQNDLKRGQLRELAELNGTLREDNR
As to the kind of experiment: EMSA. (Mobility shift assays separate free from complexed probe on a gel.)

In series [2] the target is T1, Msl5-(KH-QUA2). Nature of the series: EMSA. The source holds these as a separate data set.

Turning to UAUACGAACAA (ssRNA) [11-mer RNA U4G], the binding result with Msl5-(KH-QUA2) [1] is given as “no binding”. Same read-out and setting: for UAUACUAUCAA (ssRNA) [11-mer RNA A6U] the value was “no binding”.

Consider UAUACUAACAA (ssRNA) [11-mer branchpoint RNA (WT)], for which the “apparent K (half saturation)” value with Msl5-(KH-QUA2) [2] was found to be 140 nM. UAUACUAGCAA (ssRNA) [11-mer RNA A6G]: the binding result with Msl5-(KH-QUA2) [1] is given as “no binding”.

On to UAUACCAACAA (ssRNA) [11-mer RNA U4C], for which the binding result in the series with Msl5-(KH-QUA2) [1] is on record as “no binding”.

These data come from publication PMC4338336.
